# Experimental data published in the RNAGym collection of RNA variant scans (doi:10.7554/elife.80360).
# B1: HDV Ribozyme (parent)
# chain: GGCCGGCAUGGUCCCAGCCUCCUCGCUGGCGCCGGCUGGGCAACAUUCCGAGGGGACCGUCCCCUCGGUAAUGGCGAAUGGGACCCA
# Variants of: B1
# Assay: self-cleavage, relative activity (ratio to wild type); higher = more cleavage; co-transcriptional
row,Variant,self-cleavage
1,C41A A71C,0.499
2,G38U C62A,0.317
3,G38U C62G,0.0831
4,G39A C44G,0.108
5,G39A C44A,0.0405
6,C41G C66U,0.683
7,G40U U46G,0.136
8,G38C G82U,0.162
9,G38C G82C,0.222
10,G40C C63G,0.138
11,G40U A45C,0.295
12,G40U A43G,0.54
13,C41A G52U,0.772
14,G40U C57U,0.712
15,G38U C75A,0.208
16,C41A A56C,0.937
17,G40C A56C,0.197
18,G40C A56G,0.237
19,C41G U69A,0.609
20,C41G U69C,0.772
21,G40U G52A,0.513
22,G40U G52C,0.891
23,G40A U65G,0.601
24,G40A U65C,1.12

row,Variant,self-cleavage
1,C41A C63U,1.04
2,C41A C63G,0.623
3,C41A G76C,1.06
4,G39C A77G,0.243
5,G39A A83C,0.277
6,G40U U72G,0.23
7,G39C C62G,0.0573
8,C41A G73C,0.554
9,C41A C49U,0.91
10,G38U C63U,0.24
11,G38U C63G,0.0978
12,G38U C63A,0.159
13,G40C A87G,0.215
14,G39A A77C,0.108
15,G39A A77U,0.176
16,C41A C85U,0.849
17,C41G C57G,0.804
18,C41G A87G,0.772
19,C41A U69A,0.831
20,G39C C84U,0.196
21,G38C G54U,0.185
22,C41A C62A,0.77
23,G38C U69C,0.18
24,C41G G82A,0.0811

row,Variant,self-cleavage
1,C41A A51U,0.981
2,C41A A43G,0.808
3,G38C U60C,0.231
4,G38C U60A,0.38
5,G40C C64U,0.223
6,G38U C86A,0.297
7,G40A G68U,0.997
8,G40A G68A,1.01
9,G38U C84G,0.115
10,C41G C63A,0.791
11,G39U U65C,0.752
12,G40C C41G,0.222
13,G40C C41U,0.629
14,G38U G54C,0.4
15,G38U A71U,0.222
16,G38U A71G,0.166
17,G39A U46C,0.181
18,G39A U46G,0.0923
19,G38C U47A,0.249
20,G39U A43G,0.0811
21,G38U G76A,0.145
22,G38U G76C,0.228
23,G40A U46G,0.554
24,G38C C86G,0.217

row,Variant,self-cleavage
1,C41G A70C,0.475
2,C41G A70G,0.929
3,G40C A83C,0.0755
4,G40U G73U,0.424
5,G40C G55U,0.205
6,G38U C58U,0.295
7,C41A U65G,0.95
8,G40C C48U,0.326
9,C41G A71G,0.554
10,G38U A43C,0.0811
11,G40C U69G,0.361
12,G39C U69G,0.133
13,G38U U46A,0.106
14,G39U G52C,0.831
15,G40C C61G,0.241
16,G39A A45U,0.389
17,G40C G59C,0.229
18,G38C U46C,0.0923
19,G38C U46G,0.095
20,C41A G59U,1.11
21,G40U A87U,0.667
22,C41A C84A,0.435
23,G38C G74A,0.0936
24,G40U G80C,0.0692

row,Variant,self-cleavage
1,G38U A51U,0.308
2,G39U U69C,0.769
3,G39U U69A,0.492
4,G38U G68A,0.163
5,G40C A43U,0.0639
6,G39U G40U,0.451
7,G39C G81A,0.185
8,G39C A87U,0.229
9,G39A U47C,0.208
10,G40C G76A,0.163
11,G38C G59C,0.266
12,G39U G82U,0.155
13,G39C C44U,0.0707
14,G39C C49A,0.237
15,G39C C49U,0.166
16,C41A G54C,1.08
17,C41A G54A,1.01
18,C41G G68A,0.45
19,C41G G68C,0.483
20,C41G G73C,0.877
21,C41G G73A,0.712
22,G40U A42G,0.306
23,G39A C49G,0.366
24,G39U C75U,0.0923

row,Variant,self-cleavage
1,G39U C75G,0.0978
2,G39U C75A,0.166
3,C41U A71C,0.644
4,G39C G40C,0.215
5,G39C G40U,0.487
6,G39U A51U,0.611
7,G39U A56G,0.659
8,G40A G53U,0.823
9,G40C U47C,0.243
10,G40U A83U,0.0936
11,G38U G82A,0.0886
12,G40C U72G,0.158
13,G40C G74A,0.0978
14,G39A C75A,0.0755
15,G39A C75U,0.178
16,G38U A70U,0.277
17,C41A U60G,0.522
18,C41A U60A,0.979
19,G40A G54A,1.04
20,G40A A43U,0.446
21,G40A U72A,0.446
22,G40U C49A,0.787
23,G40U C49U,0.817
24,G40A A77C,0.427

row,Variant,self-cleavage
1,G40U G55U,0.621
2,G38U A83G,0.0866
3,G40U G53C,0.519
4,G39U A71U,0.431
5,G39C C41A,0.802
6,G39C C41U,0.554
7,C41A C61U,0.76
8,G40C U65C,0.155
9,G40A A70C,0.849
10,G39C C58A,0.521
11,G39C C58U,0.0923
12,G38C G40U,0.0332
13,G39U G68A,0.841
14,G39U G68U,0.56
15,G39U C44G,0.113
16,G39A C63A,0.538
17,G39A C63G,0.352
18,G40U C85G,0.612
19,C41G A77G,0.268
20,G40A U69C,0.876
21,G40A U69A,0.892
22,C41A A77C,0.172
23,C41A A77U,0.332
24,C41A A77G,0.628

row,Variant,self-cleavage
1,C41G U46G,0.231
2,G39C U79A,0
3,G40A A51C,0.984
4,C41G G53A,0.485
5,G39A C85A,0.332
6,G39A C85U,0.465
7,G39A C66U,0.472
8,G39A U72C,0.135
9,G39U C41A,0.719
10,G39A A42G,0.0292
11,G39A A42U,0.272
12,C41G A42C,0.353
13,C41G A42G,0.332
14,G40C A71C,0.121
15,G38U G50C,0.225
16,G40A C64U,0.925
17,G38U G55U,0.21
18,G38U G55C,0.19
19,G39A C86A,0.53
20,G39C G67A,0.134
21,G39C G67C,0.232
22,G38U C66G,0.0764
23,G39C A78C,0.125
24,G39C A78G,0.0573

row,Variant,self-cleavage
1,G38U A42C,0.0941
2,G39A A70C,0.277
3,G40C C75U,0.0652
4,G40U A70C,0.391
5,G40A G52C,0.986
6,G40U A71C,0.327
7,C41G G55C,0.723
8,C41G C44A,0.192
9,G39C U65C,0.374
10,G39C U65G,0.262
11,G40A C57A,1.18
12,G40A C58G,1.02
13,C41G A56C,0.942
14,C41G G52A,0.562
15,C41G G52U,0.554
16,C41G C64G,0.536
17,G38C G81C,0.0354
18,G38C G81U,0.0779
19,G40A C61A,0.839
20,G40A C61U,0.765
21,G39A G40U,0.57
22,G39A G40A,0.786
23,G39A G40C,0.459
24,G40C C84A,0.0831

row,Variant,self-cleavage
1,G39U G76U,0.819
2,G40A U60G,0.916
3,G39C G68C,0.339
4,C41G A83C,0.123
5,G39A G67A,0.453
6,G38U A45C,0.181
7,C41A G74C,0.366
8,G39A G73U,0.0845
9,G39A G73A,0.0801
10,G40U G81C,0.149
11,G39A G81C,0.113
12,C41G G59U,0.969
13,G40A G74A,0.726
14,G39U G73U,0.211
15,G39U G81U,0.185
16,G39U G81C,0.119
17,G39A G55A,0.683
18,G39A G55U,0.356
19,G40U C62G,0.467
20,C41U A51U,0.932
21,C41U A51C,0.916
22,G38U C85U,0.269
23,G39U A87U,0.683
24,G40C A51G,0.288

row,Variant,self-cleavage
1,G39U C85G,0.69
2,C41A C57U,0.909
3,G39C G73C,0.151
4,G39C C57U,0.345
5,G39C C57G,0.415
6,G40A C75A,0.0831
7,G40A C75G,0.305
8,C41A G81C,0.169
9,G40U A56G,0.677
10,G40U A56U,0.801
11,G38U A78C,0.086
12,G38U A78U,0.0911
13,G40U U65A,0.808
14,C41G G67A,0.456
15,G40C A42C,0.111
16,G40C A42U,0.151
17,C41U A70G,0.876
18,G39A G68U,0.554
19,G39A G68C,0.441
20,G38U G40C,0.0923
21,G40U C41A,0.843
22,G38U U65C,0.415
23,G39C G76A,0.289
24,G39U C63A,0.598

row,Variant,self-cleavage
1,C41G C61A,0.928
2,G40U U79C,0.185
3,G40U U79G,0.243
4,G40A A78C,0.233
5,G40U U47A,0.427
6,G39U C58A,0.665
7,G39U A77G,0.564
8,G39U A77C,0.233
9,G39U A83G,0.444
10,G39U C64G,0.845
11,G39U C64U,0.597
12,G40A A71C,0.485
13,G38U C44U,0.126
14,G39A G50U,0.441
15,G38U G74A,0.0248
16,G40A A56U,1.02
17,C41A G55A,0.937
18,G40C U79C,0.0509
19,G40U C63G,0.348
20,G40U C63U,0.866
21,G40A A87C,0.981
22,C41A A83C,0.312
23,G38C G73A,0.185
24,G38U A56C,0.266

row,Variant,self-cleavage
1,G40C C86U,0.372
2,G39U G80C,0.181
3,G39U C66G,0.831
4,G39U C66A,0.739
5,G39U C57U,0.831
6,G39U C57A,0.941
7,G38U C61A,0.248
8,G39U C49A,0.604
9,G39U C49U,0.649
10,C41G U72G,0.795
11,C41G G54C,0.849
12,G40U U69G,0.727
13,G40C C44U,0.0627
14,G40C C44A,0.0468
15,G40C C44G,0.106
16,G40A A42U,0.802
17,G40U C44G,0.194
18,G39U U47C,0.393
19,G40C A78U,0.122
20,G40C A78G,0.318
21,G40A C49A,0.95
22,G40A C49U,0.95
23,G39C A70U,0.0308
24,G39C A70G,0.151

row,Variant,self-cleavage
1,G39C U47A,0.243
2,G39C C66U,0.136
3,G40U G54A,0.694
4,G40U A77C,0.145
5,G40U A77U,0.212
6,G40U G50U,1.01
7,G40A C85A,0.859
8,G38U G39C,0
9,G38U G67U,0.166
10,G38U G67A,0.237
11,G40C G81U,0.162
12,C41A G53C,0.848
13,C41A G53U,0.969
14,G40A G81A,0.475
15,G38U A87G,0.16
16,G39C G53A,0.308
17,G39U C62A,0.623
18,G39U C62G,0.408
19,G39A A51C,0.389
20,G38U G81A,0.128
21,G38U G81C,0.0678
22,C41A C86U,0.904
